The chains are these.
B1: Biotinylated human α2-antiplasmin (Asn-α2-AP form) (natural protein, UniProt P08697 40-491, looked up)
chain: NQEQVSPLTLLKLGNQEPGGQTALKSPPGVCSRDPTPEQTHRLARAMMAFTADLFSLVAQTSTCPNLILSPLSVALALSHLALGAQNHTLQRLQQVLHAGSGPCLPHLLSRLCQDLGPGAFRLAARMYLQKGFPIKEDFLEQSEQLFGAKPVSLTGKQEDDLANINQWVKEATEGKIQEFLSGLPEDTVLLLLNAIHFQGFWRNKFDPSLTQRDSFHLDEQFTVPVEMMQARTYPLRWFLLEQPEIQVAHFPFKNNMSFVVLVPTHFEWNVSQVLANLSWDTLHPPLVWERPTKVRLPKLYLKHQMDLVATLSQLGLQELFQAPDLRGISEQSLVVSGVQHQSTLELSEVGVEAAAATSIAMSRMSLSSFSVNRPFLFFIFEDTTGLPLFVGSVRNPNPSAPRELKEQQDSPGNKDFLQSLKGFPRGDKLFGPDLKLVPPMEEDYPQFGSPK
modifications: biotin (EZ-Link Sulfo-NHS-Biotinylation Kit), sites not stated
B2: Biotinylated human α2-antiplasmin (Asn-α2-AP form), P08697 40-491 (natural protein)
chain: B1 chain
modifications: here or on the partner: biotin (EZ-Link Sulfo-NHS-Biotinylation Kit), sites not stated
B3: Human α2-antiplasmin, Asn-α2-AP form (natural protein)
chain: B1 chain
B4: Fibrin-derived D-D fragment (domain or fragment)
chain 1: VSEDLRSRIEVLKRKVIEKVQHIQLLQKNVRAQLVDMKRLEVDIDIKIRSCRGSCSRALAREVDLKDYEDQQKQLEQVIAKDLLPSR
chain 2: DNENVVNEYSSELEKHQLYIDETVNSNIPTNLRVLRSILENLRSKIQKLESDVSAQMEYCRTPCTVSCNIPVVSGKECEEIIRKGGETSEMYLIQPDSSVKPYRVYCDMNTENGGWTVIQNRQDGSVDFGRKWDPYKQGFGNVATNTDGKNYCGLPGEYWLGNDKISQLTRMGPTELLIEMEDWKGDKVKAHYGGFTVQNEANKYQISVNKYRGTAGNALMDGASQLMGENRTMTIHNGMFFSTYDRDNDGWLTSDPRKQCSKEDGGGWWYNRCHAANPNGRYYWGGQYTWDMAKHGTDDGVVWMNWKGSWYSMRKMSMKIRPFFPQQ
chain 3: KMLEEIMKYEASILTHDSSIRYLQEIYNSNNQKIVNLKEKVAQLEAQCQEPCKDTVQIHDITGKDCQDIANKGAKQSGLYFIKPLKANQQFLVYCEIDGSGNGWTVFQKRLDGSVDFKKNWIQYKEGFGHLSPTGTTEFWLGNEKIHLISTQSAIPYALRVELEDWNGRTSTADYAMFKVGPEADKYRLTYAYFAGGDAGDAFDGFDFGDDPSDKFFTSHNGMQFSTWDNDNDKFEGNCAEQDGSGWWMNKCHAGHLNGVYYQGGTYSKASTPNGYDNGIIWATWKTRWYSMKKTTMKIIPFNRLTIGEGQQHHLGGAK
modifications: covalent γ-γ cross-linking between the D regions
B5: Fibrin-derived D-D:E complex (complex)
chain 1: B4 chain 1
chain 2: B4 chain 2
chain 3: B4 chain 3
chain 4: GPRVVERHQSACKDSDWPFCSDEDWNYKCPSGCRMKGLIDEVNQDFTNRINKLKNSLFEYQK
chain 5: GHRPLDKKREEAPSLRPAPPPISGGGYRARPAKAAATQKKVERKAPDAGGCLHADPDLGVLCPTGCQLQEALLQQERPIRNSVDELNNNVEAVSQTSSSSFQYMYLLK
chain 6: YVATRDNCCILDERFGSYCPTTCGIADFLSTYQTKVDKDLQSLEDILHQVENKTSEVKQLIK
modifications: covalent γ-γ cross-linking between the D regions

Assay [1] addresses Fibrin made from surface-adsorbed or chip-immobilized human fibrinogen by thrombin (most probably monomeric) (human) (UniProt P02679). Nature of the assay: ELISA.
For assay [2], the target named is Recombinant Aα392–610 fragment (human fibrinogen αC-domain) (human). Briefly: ELISA. In general terms: In an ELISA, binding on a coated surface is turned into a signal by an enzyme label.
The target of assay [3] is Fibrin made from surface-adsorbed or chip-immobilized human fibrinogen by thrombin (most probably monomeric) (human) (UniProt P02679). Nature of the assay: ELISA. The source holds these as a separate data set.
The target in assay [4] is Recombinant Aα392–610 fragment (human fibrinogen αC-domain) (human). Briefly: ELISA. This is another data set of the same source.
Assay [5] concerns the target Fibrin made from surface-adsorbed or chip-immobilized human fibrinogen by thrombin (most probably monomeric) (human) (UniProt P02679). Briefly: ELISA. The source holds these as a separate data set.
The target of assay [6] is Recombinant Aα504–610 fragment (C-terminal sub-domain of the αC-domain) (human). Briefly: ELISA.
For assay [7], the target named is Recombinant Aα392–610 fragment (human fibrinogen αC-domain) (human). Nature of the assay: ELISA. The source holds these as a separate data set.
The target of assay [8] is T1, Plasminogen-depleted human fibrinogen (human, UniProt P02671-2 36-644; P02675 45-491; P02679 27-453). Nature of the assay: ELISA.
Assay [9] has as its target Fibrin made from surface-adsorbed or chip-immobilized human fibrinogen by thrombin (most probably monomeric) (human) (UniProt P02679). Briefly: ELISA. This is another data set of the same source.
Assay [10] addresses Recombinant Aα504–610 fragment (C-terminal sub-domain of the αC-domain) (human). Briefly: ELISA. The source holds these as a separate data set.
For assay [11], the target named is Recombinant Aα221–610 fragment (human fibrinogen αC region) (human). Nature of the assay: ELISA.
The target of assay [12] is T1, Plasminogen-depleted human fibrinogen. Nature of the assay: ELISA. This is another data set of the same source.
Assay [13] deals with Fibrinogen D1 fragment (human). Nature of the assay: ELISA.
Assay [14] addresses Fibrinogen D1 fragment (human). Briefly: ELISA. The source holds these as a separate data set.
The target in assay [15] is Polymeric fibrin (cross-linked fibrin oligomers/polymers prepared on the sensor chip) (human) (UniProt P02679). Nature of the assay: SPR. A general note: Surface plasmon resonance follows binding to a sensor surface in real time, without labels.
The target is the same in assay [16]. Briefly: SPR. The source holds these as a separate data set.
For assay [17], the target named is B1. Nature of the assay: ELISA.
Assay [18] concerns the target B1. Nature of the assay: ELISA. This is another data set of the same source.
Assay [19] has as its target B1. Briefly: ELISA. This is another data set of the same source.
Assay [20] addresses B1. Nature of the assay: ELISA. This is another data set of the same source.
In assay [21] the target is T2, Human α2-antiplasmin, Asn-α2-AP form (human, UniProt P08697 40-491).
T2 sequence (looked up): B1 chain
Briefly: SPR.

Where two headings read alike, the source gives them in different places.

On to B1, for which the Kd in assay [1] worked out at 25 nM; in assay [2], 111 nM; in [3], 109 nM; in assay [4], 157 nM; in [5] it was 101 nM; in [6] it was 130 nM. The Kd in assay [7] is 141 nM; in assay [8] it was 179 nM; in [9], 102 nM; in assay [10], 123 nM; in assay [11], 131 nM; in assay [12], 102 nM.
Turning to B2, the dissociation constant (Kd) was 197 nM in assay [13] and 165 nM in assay [14].
On to B3, for which the figures for the Kd in [15] and in assay [16] were 68 nM and 45 nM, respectively.
As for B4, the dissociation constant Kd in assay [17] was found to be 94 nM; in assay [18] it was 5.5 nM; in [19], 105 nM; in [20], 98 nM.
In assay [21], B5 displayed an equilibrium dissociation constant (Kd) of 1400 ± 400 nM.

By Kd is commonly meant the free concentration of one partner at which half of the binding sites on the other are occupied at equilibrium, for simple one-to-one binding.

(Values after article PMC2932838 (Biochemistry, 2010).)
